Results reported in PMC11059514 (Molecular Metabolism, 2024).

Target: T1, PPARα bait (pCLG-PPARα), full-length PPARα fused to a mutant leptin receptor (UniProt Q07869 1-468)
T1 sequence: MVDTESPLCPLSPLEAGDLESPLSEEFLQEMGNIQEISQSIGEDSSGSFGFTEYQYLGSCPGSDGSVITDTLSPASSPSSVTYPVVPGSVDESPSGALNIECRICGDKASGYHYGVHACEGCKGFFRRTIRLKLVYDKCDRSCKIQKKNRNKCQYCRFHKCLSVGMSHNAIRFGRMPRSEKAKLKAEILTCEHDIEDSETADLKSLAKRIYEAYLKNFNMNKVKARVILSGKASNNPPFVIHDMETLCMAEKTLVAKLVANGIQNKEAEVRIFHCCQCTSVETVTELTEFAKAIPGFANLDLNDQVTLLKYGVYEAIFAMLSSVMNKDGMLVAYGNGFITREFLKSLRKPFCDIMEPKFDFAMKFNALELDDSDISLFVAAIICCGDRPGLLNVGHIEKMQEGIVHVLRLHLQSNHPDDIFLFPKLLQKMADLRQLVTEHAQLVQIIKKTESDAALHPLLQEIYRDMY
Test: two-hybrid

fold increase of the MAPPIT signal on serum starvation: ~3 fold
B1: ERRα prey (pMG1-ERRα), full-size ERRα ORF coupled to gp130 (natural protein)
chain: MSSQVVGIEPLYIKAEPASPDSPKGSSETETEPPVALAPGPAPTRCLPGHKEEEDGEGAGPGEQGGGKLVLSSLPKRLCLVCGDVASGYHYGVASCEACKAFFKRTIQGSIEYSCPASNECEITKRRRKACQACRFTKCLRVGMLKEGVRLDRVRGGRQKYKRRPEVDPLPFPGPFPAGPLAVAGGPRKTAAPVNALVSHLLVVEPEKLYAMPDPAGPDGHLPAVATLCDLFDREIVVTISWAKSIPGFSSLSLSDQMSVLQSVWMEVLVLGVAQRSLPLQDELAFAEDLVLDEEGARAAGLGELGAALLQLVRRLQALRLEREEYVLLKALALANSDSVHIEDAEAVEQLREALHEALLEYEAGRAGPGGGAERRRAGRLLLTLPLLRQTAGKVLAHFYGVKLEGKVPMHKLFLEMLEAMMD
